Substrate: O=[N+]([O-])c1ccc(O[C@@H]2O[C@H](CO)[C@@H](O)[C@H](O)[C@H]2O)cc1
Test: purified protein
Settings: free enzyme, 2–16 mM p-NPG, 50 mM NaAc-HAc buffer, 40 °C

B1: β-glucosidase (BG), his-tagged (Coptotermes formosanus) (protein)
chain: DDVDNDTLVTFPDDFKLGAATASYQIEGGWDADGKGPNIWDTLTHERPHLVVDRSTGDVADDSYHLYLEDVRLLKDMGAEVYRFSISWARILPEGHDNNVNEAGIEYYNKLIDALLRNGIEPMVTMYHWDLPQKLQDLGGWPNRILAKYAENYARVLFSNFGDRVKQWLTFNEPLTFMDAYASDTGMAPSVDTPGIGDYLTAHTVILAHANIYRLYEREFREEQQGQVGIALNIHWCEPETGSPKDVEACERYQQFNLGIYAHPIFSENGDYPSVLKARVDANSASEGYTTSRLPKFTPEEVAFVNGTYDFLGLNFYTAVVGRDGVEGEPPSRYRDMGTITSQDPEWPESASSWLRVVPWGFRKELNWIANEYGNPPIFITENGFSDYGGVNDTNRVLYYTEHLKEMLKAIHIDGVNVIGYTAWSLIDNFEWLRGYTERFGIHAVNFIDPSRPRTPKESARVLTEIFKTRQIPERFRD
Km: 4.2 ± 0.3 mM
kcat: 58.8 s⁻¹
kcat/Km: 14000 M⁻¹ s⁻¹
